Target: hsc70 (constitutively expressed form of hsp70) (UniProt P11142)
Test: cell-based or functional assay

Chain of hsc70 (constitutively expressed form of hsp70) (P11142 whole entry): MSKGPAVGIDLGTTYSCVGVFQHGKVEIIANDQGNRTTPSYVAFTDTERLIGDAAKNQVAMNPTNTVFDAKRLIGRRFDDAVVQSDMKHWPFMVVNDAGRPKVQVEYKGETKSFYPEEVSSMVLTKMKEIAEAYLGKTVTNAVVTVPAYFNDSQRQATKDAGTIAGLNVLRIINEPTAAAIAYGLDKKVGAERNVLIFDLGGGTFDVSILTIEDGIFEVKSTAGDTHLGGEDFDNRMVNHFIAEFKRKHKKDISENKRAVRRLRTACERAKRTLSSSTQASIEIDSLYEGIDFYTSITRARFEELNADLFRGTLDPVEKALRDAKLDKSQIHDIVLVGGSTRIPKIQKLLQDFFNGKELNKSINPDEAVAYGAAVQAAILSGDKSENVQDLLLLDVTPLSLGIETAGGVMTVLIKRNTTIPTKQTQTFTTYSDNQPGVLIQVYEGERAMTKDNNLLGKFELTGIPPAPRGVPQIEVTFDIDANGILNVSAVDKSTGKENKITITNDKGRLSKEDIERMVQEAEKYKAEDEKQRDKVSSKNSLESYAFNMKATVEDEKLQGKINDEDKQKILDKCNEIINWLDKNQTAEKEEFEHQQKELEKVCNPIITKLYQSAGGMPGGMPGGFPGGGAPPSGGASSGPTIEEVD

For “His-UBP (histidine tagged-UBP) (from UniProt O43765 1-313)”, the decrease in hs70-dependent refolding of luciferase was 30%.

Source: patent US20050233963A1
